Source: patent US8003357B2, “Acidophilic enzymes” (Helmholtz-Zentrum Fuer Infektionsforschung GmbH, priority 2005, dated 2011)

What was measured:
[1] = Transglucosylation of maltose catalyzed by αGluFA; assay type: biochemical
From the text: αGluFA is also suitable for the transfer of glucosyl groups from maltose to selectively produce a maltotriose. […] The reaction was followed by HPLC measurements.

[2] = Fe2+ content (ICP-MS) and Fe2+ dependence of activity, dialysis against EDTA; assay type: biochemical; details: relative to wild type = 100; after dialysis against 1 mM EDTA; 100 mM sodium citrate, 10 mM FeCl2
Experimental: The UV-VIS absorption spectra of purified acidic enzymes are shown in FIG. 4, wherein the uninterrupted lines refer to Fe^2+ containing enzymes and the interrupted lines refer to enzymes after dialysis against EDTA containing buffer. The λ-max values found at ca. 572 nm correlate with the Fe^2+ content, i.e. disappear after incubation with EDTA or DTT for 24 h. ICP-MS analysis confirmed the presence of 0.82±0.10 mol Fe in EstFA, 0.34±0.08 mol Fe in αGluFA, […] and 0.63±0.09 mol Fe in LigFA.
In FIG. 5, relative activities of acidic enzymes with varying content of Fe^2+ are shown. For analysis, purified enzymes were incubated in 1 mM EDTA. At time intervals indicated, two aliquots were removed, one was used for hydrolysis of respective substrates, the other for ICP-MS analysis of Fe. For relative activities, activities before incubation with EDTA were used as 100% values.
When further investigating the dependence of the acidic enzymes according to the invention on Fe^2+, relative activity for EstFA, αGluFA and LigFA were investigated for their natural Fe^2+ content, e.g. wild-type, which was set to 100%, in comparison to the activity after dialysis against a 1 mM EDTA containing buffer.

[3] = pH and temperature dependence, stability and activity of recombinant acidic enzymes; assay type: biochemical; details: for enzymatic stability at elevated temperatures: FIG. 2, LigFA pH 3.0, EstFA and αGluFA pH 2.0 at 40 and 50° C., GlyFA1 and GlyFA2 pH 4.0 at 40° C.; for Optimum temperature: measured at optimum pH
Experimental: The acidic enzymes according to the invention were expressed in E. coli using the genomiccoding sequence for the respective enzyme from Ferroplasma acidiphilum, which are described in detail below. For enzymatic conversions, reaction conditions were in 100 mM sodium acetate buffer, 100 mM citrate buffer, 100 mM HEPES buffer for 2 minutes at 30° C., using p-nitrophenol propionate as the substrate for esterase, starch in the case of glycosidases, and HindIII digested λ DNA for ligase.
The activity was assayed using p-nitrophenol propionate as a substrate for esterase, starch for αGluFA and GlyFA1, GlyFA2, and HindIII digested λ DNA for LigFA.
The acidic enzymes according to the invention in vitro show similar elevated reaction temperatures. Substrates were as described for FIG. 2 above.
An overview of catalytic and molecular properties of acidic enzymes that were heterologously expressed in E. coli is given in the following Table III: […]

[4] = substrate: CCCCCCCCCC(=O)Oc1ccc([N+](=O)[O-])cc1; experiment: EstFA hydrolysis of p-nitrophenol esters and triglycerides; assay type: biochemical, Ferroplasma acidiphilum; details: other: EstFA expressed in E. coli
Experimental: (§1) Hydrolysis of p-nitrophenol propionate was observed spectrophotometrically at 405 nm, optionally in and 96-well plates. The substrate specificity of acidic esterase EstFA obtainable from Ferroplasma acidiphilum was characterized using the heterologously expressed EstFA of Example 6 (expressed in E. coli), using p-nitrophenol esters and triglycerides as summarised in following Table IV:
(§2) The above substrate specificities were tested in 96-well plates, using 100 mM citrate buffer (pH 2.0) in the presence of 5 μg pure EstFA. For the substrate, the concentrations between 10 nM and 10 mM were chosen. Progress of the reaction was followed by spectrophotometry using p-nitrophenol propionate as an indicator. The reaction was stopped after 10 hours by adjusting the pH to 8.0 by adding sodium hydroxide from a 100 mM stock solution and phenol red (0.8 mM) as a pH indicator. Activities and selectivities were examined according to Mam Fai Lui et al. (2001). Ester hydrolysis of enantiomerically pure esters was measured colorimetrically in 5.0 mM EPPS buffer (N-(2-hydroxyethyl) piperazine-N′-(3′-propanesulfonic acid) at pH 8.0 and phenol red after termination of the reaction.

[5] = substrate: CCCC(=O)Oc1ccc([N+](=O)[O-])cc1; experiment: as above; assay type: biochemical, Ferroplasma acidiphilum; details: other: EstFA expressed in E. coli
Experimental: as §1, §2

[6] = substrate: CCCCCCCC(=O)Oc1ccc([N+](=O)[O-])cc1; experiment: as above; assay type: biochemical, Ferroplasma acidiphilum; details: other: EstFA expressed in E. coli
Experimental: as §1, §2

[7] = substrate: CCC(=O)Oc1ccc([N+](=O)[O-])cc1; experiment: as above; assay type: biochemical, Ferroplasma acidiphilum; details: other: EstFA expressed in E. coli
Experimental: as §1, §2

[8] = substrate: CCCCCCCCCCCC(=O)Oc1ccc([N+](=O)[O-])cc1; experiment: as above; assay type: biochemical, Ferroplasma acidiphilum; details: other: EstFA expressed in E. coli
Experimental: as §1, §2

[9] = substrate: CC(=O)Oc1ccc([N+](=O)[O-])cc1; experiment: as above; assay type: biochemical, Ferroplasma acidiphilum; details: other: EstFA expressed in E. coli
Experimental: as §1, §2

[10] = substrate: CCCC(=O)OCC(COC(=O)CCC)OC(=O)CCC; experiment: as above; assay type: biochemical, Ferroplasma acidiphilum; details: other: EstFA expressed in E. coli
Experimental: as §1, §2

[11] = measured at optimum temperature

B1: αGluFA: acidic glucosidase from Ferroplasma acidiphilum, 531 amino acids, Seq ID No. 11 (protein, listed as Ferroplasma acidiphilum)
chain: INSLYILNHKVIIAVAVSAILIAMVFAGANIPYPGYNPTDHLISGKHPISNVSEVPKNFTLSGNVSNSNNNLPLSGTITVSNSTMSRTFNTSSNGSYNITLPQGNYSISSSIPGFQNYSSTINLDSNKTQNISTPPATTIGNGINQVPGSTNVSTLVPYLNNSIMSGGLNTDNITGTFDKNITIDLGKKLNNTQFVVLMKLDGAVYSYNWVTNGSGMAKLFLKYSGNYTMSAYTLYYNSSVIHYNTANNDTARFNMTERITFISSVILQSAVPLHDNSSVANSTLTVKGGVFSVPSLSVNSNLTGTYYKYEVPVGFYNFAYSNAHYVSKNFGVDVTGNSTVNKTIDPYLISINIRNNTGNTFNYTLGSTFYSGNGIHMATSGITTLLVFHDGKIVYDNTILLTSANPYYQLNLTISNKNLTFNGIETDSTNLSIVYSGNVTSNFYIASLEFENFSTSATNGMIIISGAASGSYPLDSGLYTYNMSQSLPTSAGNLTIKLVYDNDSKVSTDGRMTVEVYGYNISTLGNYITE
modifications: CDS (1)..(1596) alpha glu FA, in Figure 11 designated sequence 5a
For B1, the “percentage of transglucosylated maltose” value ([1]; over the course of the reaction) was “more than 70%”, the “product selectivity of synthesis” value ([1]; pH 3.0, up to 300 g/L maltotriose) was “selectively synthesizes maltotriose” and the maltose ([1]; reaction time 5) was 456 g/L. The maltotriose ([1]; reaction time 5) was 88 g/L, the “percentage of maltose transglycosylated” value ([1]; reaction time 5) was 70.3% and the glucose ([1]; reaction time 5, 600 g/L maltose, pH 3.0, 50° C.) was 59 g/L. It also gave a glucose ([1]; reaction time 10) of 76 g/L, a maltose ([1]; reaction time 10) of 402 g/L and a maltotriose ([1]; reaction time 10) of 122 g/L. The “percentage of maltose transglycosylated” value ([1]; reaction time 10) was 72.7%, the glucose ([1]; reaction time 20) was 112 g/L and the maltose ([1]; reaction time 20) was 302 g/L. For the same molecule, the maltotriose ([1]; reaction time 20) was 186 g/L, the “percentage of maltose transglycosylated” value ([1]; reaction time 20) was 74.5% and the glucose ([1]; reaction time 30) was 153 g/L. For the same molecule, the maltose ([1]; reaction time 30) was 199 g/L, the maltotriose ([1]; reaction time 30) was 248 g/L and the “percentage of maltose transglycosylated” value ([1]; reaction time 30) was 73.3%. The glucose ([1]; reaction time 60) was 165 g/L, the maltose ([1]; reaction time 60) was 159 g/L and the maltotriose ([1]; reaction time 60) was 276 g/L. For the same molecule, the “percentage of maltose transglycosylated” value ([1]; reaction time 60) was 74.7%, the glucose ([1]; reaction time 180) was 185 g/L and the maltose ([1]; reaction time 180) was 111 g/L. For the same molecule, the maltotriose ([1]; reaction time 180) was 304 g/L, the “percentage of maltose transglycosylated” value ([1]; reaction time 180) was 74.0% and the “activity, +EDTA” value [2] was 5.40%. The “enzymatic stability at elevated temperatures” value [3] was “good stability”, the enzymatic activity retained ([3]; at 65° C.) was “approximately 50%” and the “temperature up to which the enzyme was stable” value ([3]; for 60 minutes) was “up to 60 °C”. The “Optimum pH” value ([3]; in the presence of Fe2+) was 2.0, the Optimum temperature [3] was 60 °C and the “Optimum pH” value [3, 11] was 2.5-3.0. For the same molecule, the original activity retained ([3]; pH 1.5 to 3.9, incubation at 20° C. over 24 hours) was “more than 80%”.

B2: EstFA: acidophilic, Fe2+ dependent esterase from Ferroplasma acidiphilum, 308 amino acids, Seq ID No. 6 (protein, listed as Ferroplasma acidiphilum)
chain: B1 chain
modifications: PEPTIDE (1)..(531) alpha Glu FA
In the case of B2, the “activity, +EDTA” value [2] is reported as 0.30%, the “stability of purified enzyme” value ([3]; 20 mM citrate buffer, pH 1.5, room temperature) is reported as “stable” and the “enzymatic stability at elevated temperatures” value [3] is reported as “good stability”. The Optimum temperature [3] was 50 °C, the “Optimum pH” value [3, 11] was 2.0-3.5 and the “stability at pH values above 5.0” value ([3]; pH above 5.0) was “rapidly inactivated”.

B3: EstFA (Ferroplasma acidiphilum) (protein)
chain: MHLMNMVDPDFNSLIELSKSAGDMTKIEPAMLRNFLDESSLSSRGAPVEIKEIKDYKIKLDGRTLNARMYDDNNAKSAILYYHGGGFLFGNIETYDNYCRFLAKESGVKIISIEYRLAPEHKFPDAFNDAYDSFHYIAKKKKDFGIEGRIGVAGDSAGANLAAALCLKCRDGKTEMPAVQVLFYPSLAPDNFSRSFIEYSDNYVLTGKMIRYFGNMYSKNMQDLINPYFSPLVADDFSNLPPAIMVTNEYDPLRDPEETYVKKLREAGVRAVGIRGIGMIHGSATDFEVSDGARNIVKMVARIIPDYL
B3 showed a Km [4] of 4.30 ± 0.42 mg/mL, a kcat [4] of 179 ± 4 s⁻¹ and a Km [5] of 1.75 ± 0.12 mg/mL. For the same molecule, the kcat [5] was 2300 ± 30 s⁻¹, the Km [6] was 1.68 ± 0.12 mg/mL and the kcat [6] was 239 ± 12 s⁻¹. The Km [7] was 0.20 ± 0.04 mg/mL, the kcat [7] was 1190 ± 25 s⁻¹ and the Km [8] was 4.41 ± 0.38 mg/mL. For the same molecule, the kcat [8] was 120 ± 4 s⁻¹, the Km [9] was 0.39 ± 0.08 mg/mL and the kcat [9] was 860 ± 21 s⁻¹. The Km [10] was 1.75 ± 0.14 mg/mL and the kcat [10] was 1890 ± 27 s⁻¹.
